Positions count from the first letter of the chain named.
T1: human Nectin-4 extracellular antigen hNectin-4-His (human, UniProt Q96NY8 32-349)
T1 construct: C-terminal 8xHis tag included
T1 sequence: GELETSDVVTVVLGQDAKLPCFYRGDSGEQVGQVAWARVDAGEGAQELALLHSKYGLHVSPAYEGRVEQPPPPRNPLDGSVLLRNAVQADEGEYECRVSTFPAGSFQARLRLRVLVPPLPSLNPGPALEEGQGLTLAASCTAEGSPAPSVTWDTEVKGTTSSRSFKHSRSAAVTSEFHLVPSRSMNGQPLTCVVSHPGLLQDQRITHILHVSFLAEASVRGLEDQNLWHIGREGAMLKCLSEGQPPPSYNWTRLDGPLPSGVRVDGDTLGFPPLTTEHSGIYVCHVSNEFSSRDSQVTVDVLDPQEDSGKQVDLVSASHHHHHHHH

B1: 1F3-2H6 scFv (scFv, V domains shown)
VH: EVQLVESGGGLVQPGGSLRLSCAASGYTFSSYGMSWVRQAPGKGLEWVSRIKSDGGDTHYADSVKGRFTISRDNSKNTLYLQMNSLRAEDTAVYYCARAELLAFDVYTASDYWGQGTLVTVSS
VL: DIQMTQSPSSLSASVGDRVTITCRASQGISSYLAWYQQKPGKAPKLLIYAASSLQSGVPSRFSGSGSGTDFTLTISSLQPEDFATYYCQQHYTTPPTFGQGTKVEIKR
notes: phage clone supernatant
B2: 1G8-2D4 scFv (scFv, V domains shown)
VH: EVQLVESGGGLVQPGGSLRLSCAASGYNFGGYAMSWVRQAPGKGLEWVSRISGTSGNNDYADSVKGRFTISRDNSKNTLYLQMNSLRAEDTAVYYCARQTEDRSYGYDLDYWGQGTLVTVSS
VL: B1 VL
notes: phage clone supernatant
B3: 1G8-2B6 scFv (scFv, V domains shown)
VH: B2 VH with Y27G, N28S, S52Y, G53A, T54Y, S55K, G56S, N57E
VL: B1 VL
notes: phage clone supernatant
B4: 1G8-1H1 scFv (scFv, V domains shown)
VH: B2 VH with Y27D, N28T, G30S, S52Y, G53P, T54Y, G56S, N57V, N58R
VL: B1 VL
notes: phage clone supernatant
B5: 1G8-1F7 scFv (scFv, V domains shown)
VH: B2 VH with N28S, G30Y, R50A, S52D, G53A, T54I, S55G, N58K, D59R
VL: B1 VL
notes: phage clone supernatant
B6: 1G8-1A12 scFv (scFv, V domains shown)
VH: EVQLVESGGGLVQPGGSLRLSCAASGGTFDTNAMSWVRQAPGKGLEWVSAISTGGDNKRYADSVKGRFTISRDNSKNTLYLQMNSLRAEDTAVYYCARQTEDRSYGYDLDYWGQGTLVTVSS
VL: B1 VL
notes: phage clone supernatant
B7: 1G8-2B3 scFv (scFv, V domains shown)
VH: B2 VH with G30T, G31T, Y32S, S52Y, G53Q, T54D, G56S, N57T, N58T
VL: B1 VL
notes: phage clone supernatant
B8: 1G8-1C10 scFv (scFv, V domains shown)
VH: B2 VH with Y27F, G30S, G31D, A33S, S52K, G53A, T54S, N57G, N58S
VL: B1 VL
notes: phage clone supernatant
B9: 1G8-1E8 scFv (scFv, V domains shown)
VH: B2 VH with Y27F, N28T, G30D, G53S, T54Y, G56W, N58P
VL: B1 VL
notes: phage clone supernatant
B10: 1G8-2A4 scFv (scFv, V domains shown)
VH: B2 VH with Y27D, N28T, G30S, G31S, Y32N, S52Y, T54G, G56W, N57D, N58T
VL: B1 VL
notes: phage clone supernatant
B11: 1G8-1A7 scFv (scFv, V domains shown)
VH: B6 VH with G27Y, T31S, N32Y, A50R, S52K, G54T, G55D, N57G, R59S
VL: B1 VL
notes: phage clone supernatant
B12: 1G8-1A3 scFv (scFv, V domains shown)
VH: B2 VH with G31S, S52Y, G53P, T54G, G56W, N57S, N58P
VL: B1 VL
notes: phage clone supernatant
B13: 1G8-1E12 scFv (scFv, V domains shown)
VH: B2 VH with Y27F, G30T, G31S, G53A, T54H, S55K, G56W, N57D, N58A, D59S
VL: B1 VL
notes: phage clone supernatant
B14: 1G8-1C8 scFv (scFv, V domains shown)
VH: B6 VH with G27F, T28S, D30G, T31S, N32S, T53G, G54S, G55S, N57S, K58P
VL: B1 VL
notes: phage clone supernatant
B15: 1G8-2A7 scFv (scFv, V domains shown)
VH: B2 VH with N28S, G30S, G31D, G53A, T54Y, S55G, G56W, N57G, N58K, D59S
VL: B1 VL
notes: phage clone supernatant
B16: 1G8-1G12 scFv (scFv, V domains shown)
VH: B2 VH with G30T, G31S, Y32S, S52Y, G53S, T54I, N58T
VL: B1 VL
notes: phage clone supernatant
B17: 1G8-1B11 scFv (scFv, V domains shown)
VH: B2 VH with G30S, G31N, R50A, S52D, G53A, T54S, S55G, N57D, N58T, D59R
VL: B1 VL
notes: phage clone supernatant
B18: 1G8-1G9 scFv (scFv, V domains shown)
VH: B2 VH with Y27F, G31D, Y32F, S52Y, G53S, T54G, S55D, G56D, N58A, D59S
VL: B1 VL
notes: phage clone supernatant
B19: 1G8-2B5 scFv (scFv, V domains shown)
VH: B2 VH with G31N, S52K, G53S, T54H, S55D, G56S, N57T, N58S, D59H
VL: B1 VL
notes: phage clone supernatant
B20: 1G8-2A1 scFv (scFv, V domains shown)
VH: B2 VH with N28S, G30D, Y32F, T54H, S55D, G56W, N57S, N58S, D59S
VL: B1 VL
notes: phage clone supernatant
B21: 1G8-1D7 scFv (scFv, V domains shown)
VH: EVQLVESGGGLVQPGGSLRLSCAASGGSFSNYAMSWVRQAPGKGLEWVSWIDTTSAYASYADSVKGRFTISRDNSKNTLYLQMNSLRAEDTAVYYCARQTEDRSYGYDLDYWGQGTLVTVSS
VL: B1 VL
notes: phage clone supernatant
B22: 1G8-2B10 scFv (scFv, V domains shown)
VH: B21 VH with G27F, S30T, Y32N, W50R, T54I, S55G, A56G, Y57T, A58S
VL: B1 VL
notes: phage clone supernatant
B23: 1F3-2H12 scFv (scFv, V domains shown)
VH: EVQLVESGGGLVQPGGSLRLSCAASGDSFDSSGMSWVRQAPGKGLEWVSGIKWITGESYYADSVKGRFTISRDNSKNTLYLQMNSLRAEDTAVYYCARAELLAFDVYTASDYWGQGTLVTVSS
VL: B1 VL
notes: phage clone supernatant
B24: 1G8-1F11 scFv (scFv, V domains shown)
VH: B2 VH with Y27D, N28T, G30S, G31S, G53Q, S55G, N57T, N58T
VL: B1 VL
notes: phage clone supernatant
B25: 1G8-1E10 scFv (scFv, V domains shown)
VH: B6 VH with G27D, T28S, D30S, N32Y, A50R, T53G, G54S, N57G, R59D
VL: B1 VL
notes: phage clone supernatant
B26: 1G8-1D11 scFv (scFv, V domains shown)
VH: B2 VH with Y27D, N28I, G30T, S52D, S55G, G56D, N57S, N58K, D59F
VL: B1 VL
notes: phage clone supernatant
B27: 1G8-1H6 scFv (scFv, V domains shown)
VH: B2 VH with Y27F, G30S, Y32F, S52Y, G53P, G56S, N57E, N58S
VL: B1 VL
notes: phage clone supernatant
B28: 1G8-1B7 scFv (scFv, V domains shown)
VH: B2 VH with N28S, G30S, G31N, G53A, T54W, S55G, G56S, N57T, D59N
VL: B1 VL
notes: phage clone supernatant
B29: 1G8-1C1 scFv (scFv, V domains shown)
VH: B21 VH with G27Y, S28I, W50R, D52S, T54G, S55F, Y57G, A58P, S59D
VL: B1 VL
notes: phage clone supernatant
B30: 1G8-1G5 scFv (scFv, V domains shown)
VH: B2 VH with G30T, G31T, Y32S, S52Y, G53A, T54D, S55T, G56A, N57Y
VL: B1 VL
notes: phage clone supernatant
B31: 1G8-2A11 scFv (scFv, V domains shown)
VH: EVQLVESGGGLVQPGGSLRLSCAASGDSFYNYSMSWVRQAPGKGLEWVSRISSDGWETFYADSVKGRFTISRDNSKNTLYLQMNSLRAEDTAVYYCARQTEDRSYGYDLDYWGQGTLVTVSS
VL: B1 VL
notes: phage clone supernatant
B32: 1G8-1G3 scFv (scFv, V domains shown)
VH: B2 VH with Y27F, G31T, T54I, G56A, N57G, N58T, D59N
VL: B1 VL
notes: phage clone supernatant
B33: 1G8-1E6 scFv (scFv, V domains shown)
VH: B31 VH with D27Y, S28I, Y30T, N31D, S52Y, S53T, T58K, F59D
VL: B1 VL
notes: phage clone supernatant

Target: T1, human Nectin-4 extracellular antigen …
Assay: ELISA, phage scFv supernatant 1:50
Experimental: The supernatants were diluted 50-fold, and the binding OD values of the diluted supernatants to hNectin-4-His were measured by ELISA. The samples were serially 3-fold diluted, and the EC₅₀ titer for the binding of the supernatants to the antigen was measured by ELISA. […] The light chain variable region sequence is set forth in SEQ ID NO: 25. The OD value is the measurement of ELISA, and the EC₅₀ value denotes the EC₅₀ value of the binding activity titer of the supernatant to the antigen.

Binder | OD value [OD]
B1 | 1.31
B2 | 1.58
B3 | 1.56
B4 | 1.4
B5 | 1.58
B6 | 1.61
B7 | 1.57
B8 | 1.61
B9 | 1.55
B10 | 1.54
B11 | 1.57
B12 | 1.62
B13 | 1.61
B14 | 1.59
B15 | 1.6
B16 | 1.55
B17 | 1.58

Binder | OD value [OD]
B18 | 1.55
B19 | 1.58
B20 | 1.6
B21 | 1.49
B22 | 1.56
B23 | 1.59
B24 | 1.6
B25 | 1.6
B26 | 1.59
B27 | 1.58
B28 | 1.56
B29 | 1.5
B30 | 1.48
B31 | 1.54
B32 | 1.58
B33 | 1.48

From patent publication US20260144882A1 (BIO THERA SOLUTIONS, published 2026)
